Consider 14 variants from PMC2397435 (2008).

First the molecules themselves.
B1: Gal4 DBD-HIV-1 p6 (wild type) [HIV-1 (pNL4-3)] / Gal4 AD-ALIX (868 amino acid-long) [not stated] (parent complex)
chain 1: LQSRPEPTAPPEESFRFGEETTTPSQKQEPIDKELYPLTSLRSLFGSDPSSQ
chain 2: MATFISVQLKKTSEVDLAKPLVKFIQQTYPSGGEEQAQYCRAAEELSKLRRAAVGRPLDKHEGALETLLRYYDQICSIEPKFPFSENQICLTFTWKDAFDKGSLFGGSVKLALASLGYEKSCVLFNCAALASQIAAEQNLDNDEGLKIAAKHYQFASGAFLHIKETVLSALSREPTVDISPDTVGTLSLIMLAQAQEVFFLKATRDKMKDAIIAKLANQAADYFGDAFKQCQYKDTLPKEVFPVLAAKHCIMQANAEYHQSILAKQQKKFGEEIARLQHAAELIKTVASRYDEYVNVKDFSDKINRALAAAKKDNDFIYHDRVPDLKDLDPIGKATLVKSTPVNVPISQKFTDLFEKMVPVSVQQSLAAYNQRKADLVNRSIAQMREATTLANGVLASLNLPAAIEDVSGDTVPQSILTKSRSVIEQGGIQTVDQLIKELPELLQRNREILDESLRLLDEEEATDNDLRAKFKERWQRTPSNELYKPLRAEGTNFRTVLDKAVQADGQVKECYQSHRDTIVLLCKPEPELNAAIPSANPAKTMQGSEVVNVLKSLLSNLDEVKKEREGLENDLKSVNFDMTSKFLTALAQDGVINEEALSVTELDRVYGGLTTKVQESLKKQEGLLKNIQVSHQEFSKMKQSNNEANLREEVLKNLATAYDNFVELVANLKEGTKFYNELTEILVRFQNKCSDIVFARKTERDELLKDLQQSIAREPSAPSIPTPAYQSSPAGGHAPTPPTPAPRTMPPTKPQPPARPPPPVLPANRAPSATAPSPVGAGTAAPAPSQTPGSAPPPQAQGPPYPTYPGYPGYCQMPMPMGYNPYAYGQYNMPYPPVYHQSPGQAPYPGPQQPSYPFPQPPQQSYYPQQ

Variants of B1 are the subject of this assay. As to the kind of experiment: yeast two-hybrid, liquid β-galactosidase assay; yeast AH109, 30°C, SD/-Leu/-Trp selection medium; triplicate; parent: 1; read off a plot.
Regarding chain 1 L44A, the ratio to parent is roughly 0.6.

Consider chain 1 F45A, for which the ratio to parent was roughly 1.

On to chain 1 P37A, for which the ratio to parent is roughly 0.3.

With chain 1 I31A, the ratio to parent is roughly 0.95.

Turning to chain 1 K33A, the ratio to parent is roughly 1.

chain 1 S40A: the ratio to parent was roughly 1.

Turning to chain 1 S43A, the ratio to parent is roughly 0.8.

Turning to chain 1 G46A, the ratio to parent was roughly 0.95.

Take chain 1 D32A: the ratio to parent is roughly 0.86.

chain 1 L41A: the ratio to parent was roughly 0.15.

On to chain 1 R42A, for which the ratio to parent was roughly 0.25.

Take chain 1 L35A: the ratio to parent was roughly 0.2.

As for chain 1 T39A, the ratio to parent was roughly 1.1.

On to chain 1 E34A, for which the ratio to parent is roughly 0.35.
